Key:
[1] = biological target: StrepII-Avi-TEV-Menin T349M (recombinant mutant human Menin) (UniProt O00255); experiment: fluorescence polarization
[2] = biological target: StrepII-Avi-TEV-Menin M327I (recombinant mutant human Menin) (UniProt O00255); experiment: fluorescence polarization
[3] = biological target: StrepII-Avi-TEV-Menin (wild-type human Menin, recombinant, E. coli) (UniProt O00255); experiment: fluorescence polarization
T349M = T349M (UniProt O00255); experiment: fluorescence polarization competition
M327I = M327I (UniProt O00255); experiment: fluorescence polarization competition
WT = WT (UniProt O00255); experiment: fluorescence polarization competition

| Substance | Kd [1] | Kd [2] | Kd [3] | IC50 (T349M) | Ki (T349M) | IC50 (M327I) | Ki (M327I) | IC50 (WT) | Ki (WT) |
| --- | --- | --- | --- | --- | --- | --- | --- | --- | --- |
| N-terminally FITC-labelled MLL2(15-48) peptide | 3.7 nM | 2.56 nM | 1.78 nM |  |  |  |  |  |  |
| MLL1 Peptide |  |  |  | 101 nM | 51.4 nM | 20.3 nM | 7.78 nM | 26.1 nM | 9.17 nM |

— patent US20260185163A1, “MEN1 MUTATIONS AND USES THEREOF” (DANA-FARBER CANCER INSTITUTE, INC., priority 2022, published 2026)
